System: MS2 coat protein
Assay: apparent KD of MS2 coat protein; designed switch direction (-1 OFF switch, 1 ON switch): 1; higher = weaker reporter binding
Outline: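 An oligonucleotide input, 200 uM small-molecule ligand, or no input was present during titration of SNAP-549-labelled MS2 coat protein, which was doubled from 0.7 or 1.5 nM to 3 µM. Designed RNA switches had been transcribed on Illumina chips by stalled E. coli RNA polymerase. Apparent KD per design is the median over clusters of curves fitted to normalised cluster fluorescence.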

[1] = Eterna round: R95, input ligand: FMN 200 uM
[2] = Eterna round: R95, input ligand: microRNA oligo, concentration not stated
[3] = Eterna round: R95, input ligand: none
[4] = input ligand: microRNA oligo, concentration not stated

Row | Sequence | apparent KD of MS2 coat protein [1] | apparent KD of MS2 coat protein [2] | apparent KD of MS2 coat protein [3] | apparent KD of MS2 coat protein (input ligand: FMN 200 uM) | apparent KD of MS2 coat protein [4] | apparent KD of MS2 coat protein (input ligand: none)
1 | GACAAUCUAUCUGAGGAUAUCAUGAAGAAAACAUGAGGAUCACCCAUGUGCAGGAGAACUGCAAAUGAGAAGGCAGAUAGAUUGG [Mat - Same State 2 - Mod - D2] (puzzle: Same State 2) | 8.71 nM | 13.1 nM | 20.4 nM | – | – | –
2 | GGAGCCGGCACCGAGGAUAUUCAUAUUAAAACAUGAGGAUCACCCAUGUACCGCAGAAGCGGUUGGGAGAAGGCGGAUCGGCUCG [Xeonanis - 23] (puzzle: Same State 2) | 33 nM | 271 nM | 730 nM | – | – | –
3 | UAGAGAGGAAGCGAGGAUAUCGUGUUAGGUACAUGAGGAUCACCCAUGUUUUAGGUAGAGGUAGGCGAGAAGGCGCAGGAGAAGA [JR_SS2_Sub090] (puzzle: Same State 2) | 25.8 nM | 32.9 nM | 34 nM | – | – | –
4 | UGGUACAUGGGAGGAUAUCUCGUGGAGACAUGAGGAUCACCCAUGUAGAUGGCCGGUAACCGGUGAGAGAAGGCCCAUGUACCU [JL SSNG1 3.69] (Eterna round: R96, puzzle: Same State NG 2) | – | – | – | 71.6 nM | 42.2 nM | 141 nM
5 | CAGCACUGUCGAGAGGAUAUGCGGUGAUGGACAUGAGGAUCACCCAUGUUAGCGACAGCAUCACGGCAGAAGGCUCUACUGCUGC [Soteed Omei mod 32] (puzzle: Same State 2) | – | 12.3 nM | – | – | – | –
6 | GUGGUCAGACAUGAGGAUCACCCAUGUGGAAUAAAUAAGGGACAGGAUAUGGAAUAUAGGAUAUACCAGAAGGGUUGGUUGGUG (Eterna round: R96, puzzle: Same State NG 3) | – | – | – | 86.2 nM | 68.7 nM | 82 nM
7 | GCCGGCUGGUGAGGAUAUGGCGCCUUGUUGGUGCCAGAAGGCAUGUCUAUUGACAUGAGGAUCACCCAUGUGUUGUCGUUGGCG [salish99_SSNG1_r04_612] (Eterna round: R96, puzzle: Same State NG 1) | – | – | – | 536 nM | 108 nM | 183 nM
8 | AUAAGUUCGAUGCUCGUCUCUCCGUACAAACAUGAGGAUCACCCAUGUGAUUGGACAAAAGCCCAAUCAGUAUGGCC [Cebeince] (puzzle: Sensor for hsa-mir-208a) | 35.9 nM | 21.4 nM | 40.9 nM | – | – | –
9 | UUAAAACAUGAGGAUCACCCAUGUAAUAAUAUGGGAGGAUAUCAGAAUGUAUGUAUGUAAUGAGAAGGCCUAAAUU [Mat - Same State 1 - Mod of Eli - D76] (puzzle: Same State 1) | 63.6 nM | 519 nM | 1280 nM | – | – | –
10 | AGUUGUGGGAAACUAUAGCAGACGCUCGUACAUGAGGAUCACCCAUGUCUUGUAGGAGCUGUUUGCUCGUUUUAUGG [ak 1 mod of one Eli's designs.] (puzzle: Sensor for hsa-mir-208a) | 62.8 nM | 50.1 nM | – | – | – | –
11 | ACAUGAGACUUAGGAUAUCUUGUACCUACAUGUGACAUGAGGAUCACCCAUGUGGUAAGUAUGAGGGAGAAGGAAGAGAUAUGU [Equivalence 38 - Jieux - Same State NG 2] (Eterna round: R96, puzzle: Same State NG 2) | – | – | – | 30.8 nM | 21 nM | 33.9 nM
12 | CCAAUGUACAAUUUAGAUCUACAUGAGGAUCACCCAUGUACAGAGGAUAUCAGCUCGUGUAGAGCUGAGAAGGCUGAAUUAAUU [SSNG3/3-A4] (Eterna round: R96, puzzle: Same State NG 3) | – | – | – | 117 nM | 117 nM | 179 nM
13 | GCAGAACAUGAGGAUCACCCAUGUCUCUAAUAUUGAGGAUAUGGACACGGUAUAUCCGAACCAGAAGGCGAACUGC [SS1 Teenbexe 17] (puzzle: Same State 1) | 27.5 nM | 34 nM | 41.2 nM | – | – | –
14 | UACAAUCUAUCUGAGGAUAUCAUGAAAAAAACAUGAGGAUCACCCAUGUGCAGGAAAACUGCAUAUGAGAAGGCAGAUAGAUUGG [salish99_SS2_r3_007] (Eterna round: R96, puzzle: Same State 2) | – | – | – | – | 505 nM | –
15 | GAGUGGUGGAGAGGAUAUGCAUUGUUAUUCACUGUAGAAGGUUCUAACAUGAGGAUCACCCAUGUAGGACUAUUCCUGUGUUUU [Parity 58 - Jieux - Same State NG 1] (Eterna round: R96, puzzle: Same State NG 1) | – | – | – | – | 9.4 nM | –
16 | GCGUUUAACGUAGGAUAUCGAGCUACAUGAGGAUCACCCAUGUCUUUGUAAAGUUUUUUUAAUUCCGAGAAGGACGUAUUGCAU [JR_SSNG2_Sub073] (Eterna round: R96, puzzle: Same State NG 2) | – | – | – | 27.1 nM | 27.2 nM | 35.9 nM

Row | Sequence | apparent KD of MS2 coat protein [1] | apparent KD of MS2 coat protein [2] | apparent KD of MS2 coat protein [3] | apparent KD of MS2 coat protein (input ligand: FMN 200 uM) | apparent KD of MS2 coat protein [4] | apparent KD of MS2 coat protein (input ligand: none)
17 | CCAGCUACUCACAUGAGGAUCACCCAUGUCUAGGAUAUAGUAGAGGAUAUUGGCGGAUGGAAGACCGAGAAGGCUACCUCCUGA [Eternabot solution 49] (Eterna round: R96, puzzle: Same State NG 3) | – | – | – | 17.9 nM | 14.4 nM | 18.3 nM
18 | GCUAGAAUUAAAGCCAACAUGAGGAUCACCCAUGUAUGUUGGUAGGAUAUCGUUUGCUUUGCAAACGAGAAGGGCUAAACUAGC [JL SSNG3 1.06] (Eterna round: R96, puzzle: Same State NG 3) | – | – | – | 78.3 nM | 58.5 nM | 73.1 nM
19 | UAGCGCUGUCGAGAGGAUAUGCGGUGAUGGACAUGAGGAUCACCCAUGUUAGCGAUAGCAUUACGGUAGAAGGCUCUACAGCUGU [salish99_ss2_r3_093] (Eterna round: R96, puzzle: Same State 2) | – | – | – | 38.2 nM | 342 nM | 694 nM
20 | AUACCAUCAGGAGGAUAUGGCACCUUAUUGGUGCCAGAAGGUCUAACAUGAGGAUCACCCAUGUGGGAGUGGUCUAAUGACCAC [Eli NG1ss - 86] (Eterna round: R96, puzzle: Same State NG 1) | – | – | – | 73.7 nM | 72.3 nM | 91 nM
21 | AGGGCCGCGGCACAGGAUAUGCACAGGUUCACAUGAGGAUCACCCAUGUGCUCUAGAUAGCUUGAGCAGAAGGGUGUCAUGGUAA [Beadi] (puzzle: Same State 2) | 16.3 nM | 18.2 nM | 27.9 nM | – | – | –
22 | UGGUACAUGGGAGGAUAUCAUGUAGAAACAUGAGGAUCACCCAUGUAGUUGGCAGCUUUGCUGAAUGAGAAGGCCCAUGUACCU [JL SSNG1 3.59] (Eterna round: R96, puzzle: Same State NG 2) | – | – | – | 20.6 nM | 19.5 nM | 26.7 nM
23 | ACUUAGUACAAUUUAGAUCUACAUGAGGAUCACCCAUGUACUGAGGAUAUCAGCUCGAAUAGAGCUGAGAAGGCAGUAGUACUA [SSNG3/9-A1] (Eterna round: R96, puzzle: Same State NG 3) | – | – | – | 47.4 nM | 42.6 nM | 50.2 nM
24 | UCUUGGUUUUUGCUCGUUUUUUGUGUUGAACAUGAGGAUCACCCAUGUAUUGUACGGUCCAGUUUGAUAAUGGUCCG [JMF 34] (puzzle: Sensor for hsa-mir-208a) | 25.6 nM | 14.3 nM | 27.3 nM | – | – | –
25 | GUUACAUGAGGAUCACCCAUGUAUGUGUGGGAGUAAGUGUCUUAGGAUAUCUAGUAUUUAGUUUAAGAGAAGGAAGAUUGUUGU [JMF's solution 61] (Eterna round: R96, puzzle: Same State NG 3) | – | – | – | 127 nM | 90 nM | 88.2 nM
26 | GAGAGAGGAUGAGGAUAUGCAGUAAUAAUGAUAGCAGAAGGCAUAGACAUGAGGAUCACCCAUGUGGGAAUAAUCCAGAGAGAG [Parity 1 - Jieux - Same State NG 1] (Eterna round: R96, puzzle: Same State NG 1) | – | – | – | – | 132 nM | –
27 | AUUUAACAAGCUUUUUGCUCGUCUUAUAAACAUGAGGAUCACCCAUGUAAUAGCGUGAGAGUAAAUUAAUAAAUAAU [JMF 83] (puzzle: Sensor for hsa-mir-208a) | 14.5 nM | 44.7 nM | 13.5 nM | – | – | –
28 | AAGCAGAGGCAAGGAUAUGUGAAGACCCAGCCUAGGCUGGGCACAUGAGGAUCACCCAUGUACAAACAGAAGGUGUAACCAGGC [Eternabot solution 18] (Eterna round: R96, puzzle: Same State NG 2) | – | – | – | 40.5 nM | 116 nM | 161 nM
29 | UGGUACAUGGGAGGAUAUCCUAUGGUGACAUGAGGAUCACCCAUGUAAUUGGAGCCGAAAGGCAUGGAGAAGGCCCAUGUACCU [JL SSNG1 3.78] (Eterna round: R96, puzzle: Same State NG 2) | – | – | – | 40.2 nM | 31.4 nM | 44.1 nM
30 | AACAAUCUAUCUGAGGAUAUCAUGAAAUAAACAUGAGGAUCACCCAUGUGCAGGAAAACUGCAUAUGAGAAGGCAGAUUGAUUGA [salish99_ss2_r3_054] (puzzle: Same State 2) | 56 nM | 2560 nM | 1280 nM | – | – | –
31 | UAAAUAAUGAUAGGAUAUACAUGAGGAAUCCUCGUAGAAGGAUCAUGACAUGAGGAUCACCCAUGUAACGCUCGAAAGAGCGUA [Mat - Same State NG 1 - JL mod - D44] (Eterna round: R96, puzzle: Same State NG 1) | – | – | – | 485 nM | 265 nM | 219 nM
